The source of these data is patent US20200369769A1.

The target of this test is PD-L1 (UniProt Q9NZQ7). The test can be described thus: cell-based or functional assay.
PD-L1, sequence (Q9NZQ7 19-290 limits assumed): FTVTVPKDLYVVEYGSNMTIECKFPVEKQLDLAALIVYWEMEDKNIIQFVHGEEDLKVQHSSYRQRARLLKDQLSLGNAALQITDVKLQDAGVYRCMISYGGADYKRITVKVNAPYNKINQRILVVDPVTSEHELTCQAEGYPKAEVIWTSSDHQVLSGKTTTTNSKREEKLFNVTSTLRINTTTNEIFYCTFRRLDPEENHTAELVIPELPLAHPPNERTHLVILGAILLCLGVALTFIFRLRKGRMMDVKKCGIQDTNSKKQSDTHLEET

“anti-PD-L1 antibody (chimera of the variable domain of atezolizumab with human IgG2 domains)” had an IL2 concentration (% over isotype control), mixed lymphocyte reaction (% over isotype control) of 247.
